Results as given in patent CN102875676A (WUXI PROGRAMMED ARTIFICIAL MOLECULAR EVOLUTION CO LTD, dated 2013).

Tests used:
[1] = target: T1, 重组人VEGF (recombinant human VEGF, VEGF-A) (human, UniProt P15692-4 27-191, limits assumed); experiment: Friguet method (solution equilibrium with human VEGF, ELISA of free antibody on immobilised VEGF), Fab
[2] = target: T1, 重组人VEGF (recombinant human VEGF, VEGF-A); experiment: Friguet method, full-length antibody

T1 sequence (P15692 other isoform, or with tags, fused parts or gaps limits assumed): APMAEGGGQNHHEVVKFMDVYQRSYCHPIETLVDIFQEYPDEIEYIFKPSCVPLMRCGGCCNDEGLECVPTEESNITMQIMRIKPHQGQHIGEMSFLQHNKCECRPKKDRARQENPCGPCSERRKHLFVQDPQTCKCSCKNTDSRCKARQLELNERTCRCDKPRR

B1: 3D7 Fab (原型分子3D7) (Fab, V domains shown)
VH: EVQLVESGGGLVQPGGSLRLSCAASGFNIKDTYIHWVRQAPGKGLEWVAYIAPSYGYTRYADSVKGRFTISADTSKNTAYLQMNSLRAEDTAVYYCSRSSDASYSYSAWGQGTLVTVSS
VL: DIVMTQSPSSLSASVGDRVTITCRASQFVGFYIHWYQQKPGKAPKLLIYAASERATGVPSRFSGSRSGTDFTLTISSLQPEDFATYYCQQWLNNPFTFGQGTKVEIKR
notes: Tested as a Fab (phage supernatant in the screen); also called 原型抗体3D7
[1]
  Kd: 1.56 nM

B2: 6B2 Fab (候选分子6B2) (Fab, V domains shown)
VH: EVQLVQSGGGVVQPRRSLRLSCAASGFDIYDDDIHWVRQAPGKGLEWVYIAPSYGYTRYADSVKGRFTVSRDNSKNTLYLQMNSLRAEDTSVYYCARSSDASYSYSAMDYWGQGTLVTVSS
VL: DIQMTQSPSSVSASIGDRVTITCRASQDASYSSAWYQQRPGKAPELLIYSAASYESGVPSRFSGSGSGTDFTLTISSLQAEDFATYYCQSSASPATFGQGTRLEIKR
[1]
  Kd: 0.276 nM

B3: 全长6B2 (F6B2), full-length antibody (antibody, V domains shown)
VH: EVQLVQSGGGVVQPRRSLRLSCAASGFDIYDDDIHWVRQAPGKGLEWVYIAPSYGYTRYADSVKGRFTVSRDNSKNTLYLQMNSLRAEDTSVYYCARSSDASYSYSAMDYWGQGTLVTVSS
VL: DIQMTQSPSSVSASIGDRVTITCRASQDASYSSAWYQQRPGKAPELLIYSAASYESGVPSRFSGSGSGTDFTLTISSLQAEDFATYYCQSSASPATFGQGTRLEIKR
notes: expressed in DG44 cells; also called 6B2全长抗体分子
[2]
  Kd: 0.022 nM
